Assay [1] concerns the target HLA-A*11:01. The experiment in a line: IEDB peptide-MHC binding, purified MHC/competitive/fluorescence; ≥ and ≤ were set here for values at or beyond the usual limits of such assays.
A further assay addresses HLA-B*18:01. The experiment in a line: IEDB peptide-MHC binding, purified MHC/direct/fluorescence; filed as Kd, often an IC50 or EC50 that approximates it; ≥ and ≤ were set here for values at or beyond the usual limits of such assays.
A further assay concerns the target HLA-B*40:01. Described as above.
The target in another assay is HLA-B*35:01. The experiment in a line: IEDB peptide-MHC binding, purified MHC/competitive/fluorescence; filed as Kd, often an IC50 or EC50 that approximates it; ≥ and ≤ were set here for values at or beyond the usual limits of such assays.
Another assay deals with HLA-A*01:01. The experiment in a line: IEDB peptide-MHC binding, purified MHC/direct/fluorescence; filed as Kd, often an IC50 or EC50 that approximates it; ≥ and ≤ were set here for values at or beyond the usual limits of such assays.
Assay [2] addresses HLA-A*02:01. The assay is described as above.
A further assay addresses HLA-A*03:01. Described as above.
In a further assay the target is HLA-A*24:02. The description is as above.
The target of the next assay is HLA-A*26:01. Described as above.
The target of a further assay is HLA-B*07:02. The description is as above.
In assay [3] the target is HLA-B*08:01. The assay is described as above.
In another assay the target is HLA-B*08:02. The description is as above.
Another assay has as its target HLA-B*15:01. The description is as above.
Another assay has as its target HLA-B*27:05. Described as above.
Another assay addresses HLA-B*44:02. Described as above.
A further assay addresses HLA-B*46:01. The description is as above.
A further assay deals with HLA-B*58:01. Described as above.
The target of assay [4] is HLA-A*11:01. The assay is described as above.
For a further assay, the target named is HLA-A*31:01. The description is as above.
A further assay addresses HLA-C*05:01. The description is as above. To be noted: source organism: Influenza A virus H3N2.
The target in the next assay is HLA-B*39:01. The experiment in a line: IEDB peptide-MHC binding, purified MHC/competitive/fluorescence; filed as Kd, often an IC50 or EC50 that approximates it; ≥ and ≤ were set here for values at or beyond the usual limits of such assays.
The next assay addresses HLA-A*69:01. The experiment in a line: IEDB peptide-MHC binding, purified MHC/direct/fluorescence; filed as Kd, often an IC50 or EC50 that approximates it; ≥ and ≤ were set here for values at or beyond the usual limits of such assays.
The target in assay [5] is HLA-B*08:01. Nature of the assay: IEDB peptide-MHC binding, purified MHC/competitive/fluorescence; filed as Kd, often an IC50 or EC50 that approximates it; ≥ and ≤ were set here for values at or beyond the usual limits of such assays.
The next assay deals with HLA-C*03:03. The experiment in a line: IEDB peptide-MHC binding, purified MHC/direct/fluorescence; filed as Kd, often an IC50 or EC50 that approximates it; ≥ and ≤ were set here for values at or beyond the usual limits of such assays. The conditions noted are these: source organism: Yersinia pestis Nepal516.
A further assay deals with HLA-C*12:03. The description is as above. To be noted: source organism: Yersinia pestis Nepal516.
The target in assay [6] is HLA-A*02:01. Nature of the assay: IEDB peptide-MHC binding, purified MHC/competitive/fluorescence; filed as Kd, often an IC50 or EC50 that approximates it; ≥ and ≤ were set here for values at or beyond the usual limits of such assays. The conditions noted are these: source organism: Yersinia pestis Nepal516.
Where [7] appears, read: source organism: Francisella tularensis subsp. holarctica LVS.
The mark [8] stands for this setting: source organism: Brucella abortus.
Where [9] appears, read: source organism: Brucella suis 1330.
Setting [10] is: source organism: Mycobacterium tuberculosis C.
Where [11] appears, read: source organism: Influenza A virus (A/Ck/HK/2133.1/2003(H5N1)).
The mark [12] stands for this setting: source organism: Influenza A virus (A/Puerto Rico/8/34/Mount Sinai(H1N1)).
The mark [13] stands for this setting: source organism: Influenza A virus (A/Duck/Shantou/2088/01(H9N2)).
The mark [14] stands for this setting: source organism: Escherichia coli O157:H7.
The mark [15] stands for this setting: source organism: Yersinia pestis Nepal516.
Where [16] appears, read: source organism: Giardia lamblia ATCC 50803.

Results on twelve sequences are retold here after the Immune Epitope Database (IEDB).

Bounds are passed on as bounds.

In the assay with HLA-A*11:01 [1] (source organism: Vaccinia virus Copenhagen), DRSDGYFLK returned an IC50 of 31.8 µM.

For the sequence MEVGNTVAF, the figures for the dissociation constant (Kd) with HLA-B*18:01 (setting [7]), in the assay with HLA-B*40:01 (setting [7]) and in the assay with HLA-B*35:01 (source organism: Francisella tularensis subsp. tularensis FSC198) were at most 0.001 µM, 0.0016 µM and 0.558 µM, respectively.

As for LTDAFHGYH, the equilibrium dissociation constant (Kd) in the assay with HLA-A*01:01 (setting [8]) was 0.0754 µM; in the assay with HLA-A*02:01 [2] (setting [8]) it was at least 20 µM; in the assay with HLA-A*03:01 (setting [8]), at least 20 µM; with HLA-A*24:02 (setting [8]), at least 20 µM; in the assay with HLA-A*26:01 (setting [9]), at least 20 µM; with HLA-B*07:02 (setting [8]), at least 20 µM. Further, the Kd in the assay with HLA-B*08:01 [3] (setting [9]), in the assay with HLA-B*08:02 (setting [9]), in the assay with HLA-B*15:01 (setting [8]), with HLA-B*18:01 (setting [8]), with HLA-B*27:05 (setting [8]) and with HLA-B*40:01 (setting [8]) was at least 20 µM in each case. Also, the Kd with HLA-B*44:02 (setting [8]), in the assay with HLA-B*46:01 (setting [8]) and with HLA-B*58:01 (setting [8]) was at least 20 µM in each case.

For the sequence EQFWCGIPY, the Kd with HLA-B*15:01 (setting [10]) was 0.0788 µM; with HLA-B*35:01 (setting [10]), 0.0002 µM.

Take SADPLASLL: the Kd with HLA-A*02:01 [2] (setting [11]), with HLA-A*11:01 [4] (setting [11]), with HLA-A*24:02 (setting [11]), in the assay with HLA-A*31:01 (setting [11]), with HLA-B*07:02 (setting [11]) and in the assay with HLA-B*08:01 [3] (setting [11]) was at least 20 µM each time. In addition, the equilibrium dissociation constant (Kd) with HLA-B*08:02 (source organism: Influenza A virus(A/swine/Shandong/fNY/2003(H9N2))) is at least 20 µM; in the assay with HLA-B*15:01 (setting [11]), at least 20 µM; with HLA-B*27:05 (setting [12]), 1.37 µM; with HLA-B*40:01 (setting [12]) it was 3.25 µM; with HLA-B*44:02 (setting [11]), at least 20 µM; with HLA-B*58:01 (setting [11]) it was at least 20 µM. The Kd in the assay with HLA-C*05:01 is at most 0.001 µM; with HLA-B*39:01 (source organism: Influenza A virus H3N2) it was 0.157 µM.

As for EEMATKADY, the Kd in the assay with HLA-A*01:01 (setting [13]), with HLA-A*02:01 [2] (setting [13]), in the assay with HLA-A*03:01 (setting [13]), with HLA-A*11:01 [4] (setting [13]), with HLA-A*24:02 (setting [13]) and with HLA-A*31:01 (setting [13]) was at least 20 µM each time. Also, the Kd is at least 20 µM in the assay with HLA-A*69:01 (setting [13]); at least 20 µM with HLA-B*07:02 (setting [13]); at least 20 µM with HLA-B*08:01 [3] (setting [13]); at least 20 µM in the assay with HLA-B*08:02 (source organism: Influenza A virus (A/Taiwan/2/2006(H1N1))); 1.46 µM with HLA-B*15:01 (setting [12]); at least 20 µM with HLA-B*27:05 (setting [13]). The Kd with HLA-B*46:01 (setting [13]) and with HLA-B*58:01 (setting [13]) was at least 20 µM in each case.

The sequence FDERRNRYL yielded a Kd in the assay with HLA-B*08:01 [5] (source organism: Influenza A virus (A/parakeet/Narita/92A/98(H9N2))) of at least 20 µM.

On to LPPERRQPF, for which the Kd in the assay with HLA-A*01:01 (setting [14]), with HLA-A*02:01 [2] (setting [14]), with HLA-A*03:01 (setting [14]), in the assay with HLA-A*11:01 [4] (setting [14]), with HLA-A*24:02 (setting [14]) and with HLA-A*31:01 (setting [14]) was at least 20 µM each time. For the same sequence, the Kd in the assay with HLA-A*69:01 (setting [14]) was at least 20 µM; with HLA-B*07:02 (setting [14]) it was 0.376 µM; with HLA-B*15:01 (setting [14]) it was at least 20 µM; with HLA-B*18:01 (setting [14]), at least 20 µM; with HLA-B*27:05 (setting [14]), at least 20 µM; with HLA-B*40:01 (setting [14]), at least 20 µM. Further, the Kd in the assay with HLA-B*44:02 (setting [14]), with HLA-B*46:01 (setting [14]) and in the assay with HLA-B*58:01 (setting [14]) was at least 20 µM in each case.

With MLMAASRAL, the Kd was determined as 0.002 µM with HLA-C*03:03; 0.361 µM with HLA-C*12:03; 0.0011 µM with HLA-A*02:01 [6]; 0.0396 µM in the assay with HLA-B*08:01 [5] (setting [15]); 0.0471 µM with HLA-B*35:01 (setting [15]); 0.0012 µM in the assay with HLA-B*39:01 (setting [15]).

Regarding SDRLHHDPL, the Kd with HLA-A*01:01 (setting [16]), with HLA-A*02:01 [2] (setting [16]), with HLA-A*03:01 (setting [16]), with HLA-A*11:01 [4] (setting [16]), with HLA-A*24:02 (setting [16]) and with HLA-A*26:01 (setting [16]) was at least 20 µM in each case. Moreover, the Kd in the assay with HLA-A*31:01 (setting [16]), with HLA-A*69:01 (setting [16]), with HLA-B*07:02 (setting [16]), with HLA-B*08:02 (setting [16]), in the assay with HLA-B*15:01 (setting [16]) and with HLA-B*27:05 (setting [16]) was at least 20 µM each time. The equilibrium dissociation constant (Kd) in the assay with HLA-B*40:01 (setting [16]) is 0.28 µM; with HLA-B*44:02 (setting [16]), at least 20 µM; with HLA-B*46:01 (setting [16]), at least 20 µM; with HLA-B*58:01 (setting [16]) it was at least 20 µM.

As for EYIWRSLKI, the Kd in the assay with HLA-A*24:02 (source organism: Entamoeba histolytica) was at most 0.001 µM.

As for ATLEDDRER, in the assay with HLA-A*11:01 [1] (source organism: Variola virus), the IC50 was determined as 49.4 µM.

In general, IC50 refers to the point on the concentration scale where inhibition reaches its midpoint. A low value points to greater potency in that assay. For orientation: Kd means the constant that tells how readily two partners part at equilibrium. Read a high Kd as weaker binding.
